From PMC5586346

Columns and labels:
[1] = biological target: α7 nicotinic acetylcholine receptor (mouse (endogenous in EOC20)) (UniProt P49582)
[2] = biological target: dominant-negative α7 nAChR α7_(345-8A) (UniProt P36544)
[3] = biological target: α7 nicotinic acetylcholine receptor (mouse (endogenous in EOC20)) (UniProt P49582); remark: listed apart in the source
[4] = biological target: dominant-negative α7 nAChR α7_(345-8A) (UniProt P36544); remark: listed apart in the source

TNF-α release (ELISA of the medium), % change from baseline with LPS, LPS + 1 mM choline, EOC20 cells transfected with empty vector [1]: -25.8% | TNF-α release (ELISA of the medium), % change from baseline with LPS, LPS + 1 mM choline, EOC20 cells transfected with α7 (345-8A) [2]: -9.22% | peak of the intracellular calcium transient (GCaMP5G, % of baseline) on 3 mM choline, EOC20 cells transfected with empty plasmid [3]: 580% | peak of the intracellular calcium transient (GCaMP5G, % of baseline) on 3 mM choline, EOC20 cells transfected with α7 (345-8A) [4]: 368%
Substance: heterotrimeric G protein subunit Gαi (from UniProt P08752 1-355) (natural protein)
